Data published in the supplement of paper PMC9170038.

Tested on: K4 kissing-loop RNA reporter
Assay: apparent KD of K4 kissing-loop reporter; higher = weaker reporter binding
Details: Eterna round: R107; input ligand: arginine 13.2 mM
Protocol: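 RNA-MaP round R107: designed RNA switches with theophylline, tryptophan, arginine or FMN aptamers are transcribed on-chip within common flanks. They are titrated with a labelled K4 kissing-loop RNA reporter in RNA-MaP buffer (100 mM Tris pH 7.5, 80 mM KCl, 4 mM MgCl2), without ligand or with the indicated ligand. Median apparent KD per design.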
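Further: bound reporter read as fluorescence of individual clusters on recovered sequencing chips by microscopy, with normalized cluster intensities fitted with a binding model.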

Q: “AGGACGGUUAUGGAUACCAGUCCGGAACUUGUCCAUGGAGUGAUGUUCCGUCCAGCUCCGGACCCUUGGCAGCCAGACUGCUGAA [theeternabot_sameState_KL_Theo_B_41]” was tested. Which “apparent KD of K4 kissing-loop reporter” value did it give?
A: The value was 0.189 µM.

Q: With “UGAUACCAGACUGAUACCAGCCAGUGAUGUUGGCUAAGCCGAAGAGGUGUCAAAGACACCGGCCCUUGGCAGCAGUCUGGUAUCU [#06 K4 Theophylline B Exclusion]” as the sequence, how does the “apparent KD of K4 kissing-loop reporter” value read?
A: The value was 0.117 µM.

Q: Which “apparent KD of K4 kissing-loop reporter” value does the source give for “CGGCGGAGUGAUGUUCCACCUACUGCGGAUACCAGCUUUGCCAAAGGCCCUUGGCAGCCGCACGGCUCAGUGAUGUUGGGUCGCG [Same State Theophylline A G11]” here?
A: The value was 0.179 µM.

Q: How did the “apparent KD of K4 kissing-loop reporter” value turn out when “CCGCUACCCUCAGGAUAUUAAAUAUUAGUGAUGUUAAUAAACCGAUGGCGAAAGCCAUCGGUAUGUUAAGAAGGGAGGGUAGCGG” was run?
A: The value was 0.847 µM.

Q: How did the “apparent KD of K4 kissing-loop reporter” value turn out when “UGACUGGAUGGAAGGAGCGCUAAACUCCUAGUGAUGUUAGGGAAAUGAGACAAAGUCUCAAGGCAGGUAGGUCGCCAUCUAGUCU [FiskerMod 16 - Jieux - Same State - Arginine B]” was run?
A: Its value is 0.0786 µM.

Q: With “AGUAGAGCAUCAGAUACCAGACUGAACUGAUGGUAAGGAGUGAUGUUCCUUAAUCAGCUAGUCCCUUGGCAGCUGAUAAUAGUCA [Theo B SS t3]” as the sequence, how does the “apparent KD of K4 kissing-loop reporter” value read?
A: The value was 0.253 µM.

Same assay, conditions: Eterna round: R107; input ligand: none

Q: Which “apparent KD of K4 kissing-loop reporter” value does the source give for “GCGAUUCAGUGAUGUUGGAAAUACAGGGAUACCAGCCGAGAAUAAGGCCCUUGGCAGCUUAAUAGGAAAGAACUAAGUAAGACGC [Theophylline A Same State; Euphoria Solution 2]” here?
A: The value was 0.877 µM.

Q: “AUUUUUUUGUCAGGAUAUUAGUAUGGUUUUGGUUUGUUAGUGAUGUUGAUAUUUUGUUUAUGUAUUUAAGAAGGGAUUUAGCGGU [gyhhgumullin]” was tested. Which “apparent KD of K4 kissing-loop reporter” value did it give?
A: Its value is 0.356 µM.

Q: With “GUAGACAGACUGCGGGCCUAGUCUACAGACUAGGAUAUCAGGAAACUGAGAAGGAGUCUAGUUGCAGUGAUGUUGCAAGAAUAAU [KL-SSFMN-A26]” as the sequence, how does the “apparent KD of K4 kissing-loop reporter” value read?
A: Its value is 0.0936 µM.

Q: For “AAGUGUCAUUAGACACAGACUACAAUAAACUAGGAUAUGCUGAUAAGCAGAAGGAGUGAUGUUCCUUUCAAGUAGUCAAUUAAAU [FmnAX 20 Mat Inspired #SwitchBubble #StaticStem #K4Late]”, which “apparent KD of K4 kissing-loop reporter” value is on record?
A: The value was 0.106 µM.

Q: Which “apparent KD of K4 kissing-loop reporter” value does the source give for “AAUACGAAGCAGUGAUGUUGCUUAUGAGAAGGAGCGCACGAAAGUGCAGGUAGGUCGCUCAGCCAUGUGGACGAAAACGUCCACA [whbob_SS_Arginine_A_sa109]” here?
A: The value was 0.0892 µM.

Q: How did the “apparent KD of K4 kissing-loop reporter” value turn out when “CCGAUGGGUACAGGAUAUGCCAGUGAUGUUGGUUUAGAUGGACCCAGAAGGAGACACCAGACGGAGGCAGAAGGGUAGCAAGGGA [Raarriis]” was run?
A: Its value is 0.106 µM.

Q: With “GCAGUGAUGUUGCGCGGGUACGGUAGAGUACGAGGACCGGUACGGCCGCCACUCGUACGGAACUGGCUAAUUUAUGGAAUGGUGA [IV]” as the sequence, how does the “apparent KD of K4 kissing-loop reporter” value read?
A: The value was 0.313 µM.

Q: Which “apparent KD of K4 kissing-loop reporter” value does the source give for “UGUUUUUACUGAAGGAGCGGCAAUUGAUACGUAGAUAUAGUGAUGUUAUAUAAGAUAGAGAGCCAGGUAGGUCGCAGAGUGUUUC [ExArgB.aA]” here?
A: The value was 0.194 µM.

Q: For “AAUAAAAUCACGGCCGCCACUGAUGCUAAUAUUAGCAGUGAUGUUGCUAUGUAGAUUUUAUUUAACAGGACCGGGUGAAUAUUUA [JR_SSTryptoB_Sub025]”, which “apparent KD of K4 kissing-loop reporter” value is on record?
A: The value was 0.162 µM.

Q: Which “apparent KD of K4 kissing-loop reporter” value does the source give for “UAACUUGCAGUGAUGUUGCAAGAACUGGAUACCAGCAUGGAAACAUGCCCUUGGCAGCCAGAAGCUGGCUGAACAUCACGUCAGU [Design5]” here?
A: Its value is 0.308 µM.

Q: With “UUAAUAAUUCAAGGAUAUGUUUUCUAUUUCGAGUGAUGUUCGGUAUUAAUAAAUUUAAUAGAUUAUACAGAAGGUGAUGGAUAGU [Cynwulf-mod#5]” as the sequence, how does the “apparent KD of K4 kissing-loop reporter” value read?
A: The value was 0.0842 µM.

Q: For “AAGUCAUAUAGAAGGAGCGUGUUUUAUAAUUUAUUUUCAUGAUCGAGUGAUGUUCGAUAUACACAGGUAGGUCGCUGUAUAAUAA [hbob_SS_Arginine_B_2t140]”, which “apparent KD of K4 kissing-loop reporter” value is on record?
A: Its value is 0.129 µM.

Q: For “CUACAUGCACAGGAGUGAUGUUUAUGGGCUCGAGGACCGGUACGGCCGCCACUCGUUAUGGCACGCAGUAGAUAUAGGCGAGGAA [theeternabot_sameState_KL_Trp_A_41]”, which “apparent KD of K4 kissing-loop reporter” value is on record?
A: The value was 0.605 µM.

Q: Which “apparent KD of K4 kissing-loop reporter” value does the source give for “AGUGUGCAAAAGCACACUCAGCACAAGGACAAGGAUAUCUACUAAUAGAGAAGGUGUCCUUUCCUUAGUGAUGUUAAGGAGCUGA [Omei KL FMN A SS D v1]” here?
A: The value was 0.7 µM.

Q: How did the “apparent KD of K4 kissing-loop reporter” value turn out when “UGUACCGAGUCAGGAUAUGGCGUCGAAAGACGAAUGCUAGUGAUGUUAGGGAUCUGCGAAAGCAGUCUAGAAGGGACUUGGUACU [FmnBS 26 G36+U68]” was run?
A: The value was 0.471 µM.

Q: Which “apparent KD of K4 kissing-loop reporter” value does the source give for “GAUCUGAACGAAAGUUCGGAUCAGUCCGAUACCAGUAUGGAUUCAUACCCUUGGCAGCGGAAAUCUGCUAUGGAGUGAUGUUCCA [Theophylline A K4 14]” here?
A: The value was 0.379 µM.

Q: For “AAGGGCUAGGCGGCCGCCACUGGUCGUGUACACAUACAGACCAGUGAUGUUGGUAUUGUAUGCGACAGGACCGGGCCUAGCCCAA [Exclusion - Tryptophan B (Freestyle 29)]”, which “apparent KD of K4 kissing-loop reporter” value is on record?
A: The value was 0.263 µM.

Q: “AGACUACUGACAGGAUAUAACAUACUAGCUCGUAUACCAAAGGUAUACGAGCACCUUCUAGUGAUGUUAGAAGGGUCGGUAGUCA [Omei KL FMN B Exc B v2]” was tested. Which “apparent KD of K4 kissing-loop reporter” value did it give?
A: Its value is 0.3 µM.

Q: “CCGAUACAUUAUUCUACGGCCGAGAGCGAUACCAGCCAAAUUUAUGGCCCUUGGCAGCGCAGAUGCAGUGAUGUUGCAUACAUAC [Same State Theophylline A GF 18]” was tested. Which “apparent KD of K4 kissing-loop reporter” value did it give?
A: Its value is 0.0956 µM.

Q: For “AAGCGUGUGGCGGCCGCCACUAGUCUCCAGUGAUGUUGGAGAUAUCACGUAAGUGAUAUCCGACAUAGGACCGGGCCAUAUGGAA [Same State - Tryptophan B (Freestyle 22)]”, which “apparent KD of K4 kissing-loop reporter” value is on record?
A: Its value is 0.813 µM.

Q: With “CCAUCGCUAUUCGAUACCAGUCAGGAGGUCUUUGGCCUCCUAUUGGAGUGAUGUUCCAUAGACCCUUGGCAGCGAAUAGUGAUGG [Theophylline B K4 15]” as the sequence, how does the “apparent KD of K4 kissing-loop reporter” value read?
A: Its value is 0.834 µM.
